Measurements taken from patent US20210246166A1 (Bayer, published 2021).
Numbered stars: 1 amine (or outer) side, 2 acyl side, 3 side chain; on linkers, the order of the positions; unused ones are H or OH. Bridge positions count the residues as written; N and C are the ends. Square brackets hold non-standard residues; d marks the D form. Primed or numbered codes have the meaning given here. Ends that are not written are not given here. * marks the point of attachment. X7 = 4‑(3,5-Dimethyl-1,2-oxazol-4-yl)‑L‑phenylalanine, Cc1noc(C)c1-c1ccc(C[C@H](N[*:1])C(=O)[*:2])cc1; X13 = (2S)‑2‑amino‑3‑(1-methylcyclopropyl)propanoic acid, CC1(C[C@H](N[*:1])C(=O)[*:2])CC1; Tranexamic″ = tranexamic acid, NC[C@H]1CC[C@@H](C(=O)*)CC1; X5 = Tetrahydropyranyl‑4‑acetic acid, O=C(CC1CCOCC1)*; Phe(2,5-diF) = O=C([C@H](Cc1cc(F)ccc1F)N[*:1])[*:2]; Oic = O=C(O)[C@@H]1C[C@@H]2CCCC[C@@H]2N1; Cyclobutylacetic = O=C(CC1CCC1)*; tBuAla = CC(C)(C)C[C@H](N)C(=O)O; Pen = CC(C)(S)[C@H](N)C(=O)O; ΔPro = O=C(O)[C@@H]1C=CCN1; NMeC = CN[C@@H](CS)C(=O)O; Sar = CNCC(=O)O

T1: recombinant rat MASP1 active protease (amino acids 302-704, C-terminal His Tag) (rat, UniProt Q8CHN8 302-704)
T1 sequence: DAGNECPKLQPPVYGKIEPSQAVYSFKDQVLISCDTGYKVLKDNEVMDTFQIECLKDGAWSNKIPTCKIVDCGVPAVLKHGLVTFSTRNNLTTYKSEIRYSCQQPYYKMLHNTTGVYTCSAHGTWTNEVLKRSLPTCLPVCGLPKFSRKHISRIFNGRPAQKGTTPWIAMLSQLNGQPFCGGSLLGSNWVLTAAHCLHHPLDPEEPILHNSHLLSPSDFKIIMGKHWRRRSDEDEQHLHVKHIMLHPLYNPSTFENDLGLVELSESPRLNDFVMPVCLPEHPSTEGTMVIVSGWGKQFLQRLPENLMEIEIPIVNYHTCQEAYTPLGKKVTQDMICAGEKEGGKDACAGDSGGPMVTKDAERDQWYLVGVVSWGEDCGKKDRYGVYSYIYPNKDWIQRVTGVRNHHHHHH

B1: Example 212: GIC+SRS-((tBu)A)-P-(Oic)-I-((N-Me)C)+IPD-NH2 (peptide)
peptide: GICSRS[tBuAla]P[Oic]I[NMeC]IPD-NH2
modifications: disulfide 3-11; N-terminus assumed
SMILES: CC[C@H](C)[C@H](NC(=O)CN)C(=O)N[C@H]1CSSC[C@@H](C(=O)N[C@H](C(=O)N2CCC[C@H]2C(=O)N[C@@H](CC(=O)O)C(N)=O)[C@@H](C)CC)N(C)C(=O)[C@H]([C@@H](C)CC)NC(=O)[C@@H]2C[C@@H]3CCCC[C@@H]3N2C(=O)[C@@H]2CCCN2C(=O)[C@H](CC(C)(C)C)NC(=O)[C@H](CO)NC(=O)[C@H](CCCNC(=N)N)NC(=O)[C@H](CO)NC1=O
B2: Example 224: AIC+SRSLP-(Oic)-IC+IPD-NH2 (peptide)
peptide: AICSRSLP[Oic]ICIPD-NH2
modifications: disulfide 3-11; N-terminus assumed
SMILES: CC[C@H](C)[C@H](NC(=O)[C@H](C)N)C(=O)N[C@H]1CSSC[C@@H](C(=O)N[C@H](C(=O)N2CCC[C@H]2C(=O)N[C@@H](CC(=O)O)C(N)=O)[C@@H](C)CC)NC(=O)[C@H]([C@@H](C)CC)NC(=O)[C@@H]2C[C@@H]3CCCC[C@@H]3N2C(=O)[C@@H]2CCCN2C(=O)[C@H](CC(C)C)NC(=O)[C@H](CO)NC(=O)[C@H](CCCNC(=N)N)NC(=O)[C@H](CO)NC1=O
B3: Example 232: ((N-Me)G)-IC+SRSLPPI-((N-Me)C)+IPD-OH (peptide)
peptide: [Sar]ICSRSLPPI[NMeC]IPD-OH
modifications: disulfide 3-11; N-terminus assumed
SMILES: CC[C@H](C)[C@H](NC(=O)CNC)C(=O)N[C@H]1CSSC[C@@H](C(=O)N[C@H](C(=O)N2CCC[C@H]2C(=O)N[C@@H](CC(=O)O)C(=O)O)[C@@H](C)CC)N(C)C(=O)[C@H]([C@@H](C)CC)NC(=O)[C@@H]2CCCN2C(=O)[C@@H]2CCCN2C(=O)[C@H](CC(C)C)NC(=O)[C@H](CO)NC(=O)[C@H](CCCNC(=N)N)NC(=O)[C@H](CO)NC1=O
B4: Example 235: AIC+SRS-((2,5-Difluoro)F)-PPI-((N-Me)C)+IPD-NH2 (peptide)
peptide: AICSRS[Phe(2,5-diF)]PPI[NMeC]IPD-NH2
modifications: disulfide 3-11; N-terminus assumed
SMILES: CC[C@H](C)[C@H](NC(=O)[C@H](C)N)C(=O)N[C@H]1CSSC[C@@H](C(=O)N[C@H](C(=O)N2CCC[C@H]2C(=O)N[C@@H](CC(=O)O)C(N)=O)[C@@H](C)CC)N(C)C(=O)[C@H]([C@@H](C)CC)NC(=O)[C@@H]2CCCN2C(=O)[C@@H]2CCCN2C(=O)[C@H](Cc2cc(F)ccc2F)NC(=O)[C@H](CO)NC(=O)[C@H](CCCNC(=N)N)NC(=O)[C@H](CO)NC1=O
B5: Example 237: AIC+SRSL-(L-dehydroproline)-(Oic)-I-(Pen)+IPD-OH (peptide)
peptide: AICSRSL[ΔPro][Oic]I[Pen]IPD-OH
modifications: disulfide 3-11; N-terminus assumed
SMILES: CC[C@H](C)[C@H](NC(=O)[C@H](C)N)C(=O)N[C@H]1CSSC(C)(C)[C@@H](C(=O)N[C@H](C(=O)N2CCC[C@H]2C(=O)N[C@@H](CC(=O)O)C(=O)O)[C@@H](C)CC)NC(=O)[C@H]([C@@H](C)CC)NC(=O)[C@@H]2C[C@@H]3CCCC[C@@H]3N2C(=O)[C@@H]2C=CCN2C(=O)[C@H](CC(C)C)NC(=O)[C@H](CO)NC(=O)[C@H](CCCNC(=N)N)NC(=O)[C@H](CO)NC1=O
B6: Example 267: ((N-Me)G)-IC+SRS-((2S)-2-amino-3-(1-methylcyclopropyl)propanoic acid)-P-(Oic)-I-(Pen)+IP-NH2 (peptide)
peptide: [Sar]ICSRS[X13]P[Oic]I[Pen]IP-NH2
modifications: disulfide 3-11; N-terminus assumed
SMILES: CC[C@H](C)[C@H](NC(=O)CNC)C(=O)N[C@H]1CSSC(C)(C)[C@@H](C(=O)N[C@H](C(=O)N2CCC[C@H]2C(N)=O)[C@@H](C)CC)NC(=O)[C@H]([C@@H](C)CC)NC(=O)[C@@H]2C[C@@H]3CCCC[C@@H]3N2C(=O)[C@@H]2CCCN2C(=O)[C@H](CC2(C)CC2)NC(=O)[C@H](CO)NC(=O)[C@H](CCCNC(=N)N)NC(=O)[C@H](CO)NC1=O
B7: Example 269: (Tranexamic)-IC+SRS-((tBu)A)-PPI-(Pen)+IP-NH2 (peptide)
peptide: {Tranexamic″}-ICSRS[tBuAla]PPI[Pen]IP-NH2
modifications: disulfide 2-10
SMILES: CC[C@H](C)[C@@H]1NC(=O)[C@@H]2CCCN2C(=O)[C@@H]2CCCN2C(=O)[C@H](CC(C)(C)C)NC(=O)[C@H](CO)NC(=O)[C@H](CCCNC(=N)N)NC(=O)[C@H](CO)NC(=O)[C@@H](NC(=O)[C@@H](NC(=O)[C@H]2CC[C@@H](CN)CC2)[C@@H](C)CC)CSSC(C)(C)[C@@H](C(=O)N[C@H](C(=O)N2CCC[C@H]2C(N)=O)[C@@H](C)CC)NC1=O
B8: Example 271: ((N-Me)G)-IC+SRSLPPIC+IPD-NH2 (peptide)
peptide: [Sar]ICSRSLPPICIPD-NH2
modifications: disulfide 3-11; N-terminus assumed
SMILES: CC[C@H](C)[C@H](NC(=O)CNC)C(=O)N[C@H]1CSSC[C@@H](C(=O)N[C@H](C(=O)N2CCC[C@H]2C(=O)N[C@@H](CC(=O)O)C(N)=O)[C@@H](C)CC)NC(=O)[C@H]([C@@H](C)CC)NC(=O)[C@@H]2CCCN2C(=O)[C@@H]2CCCN2C(=O)[C@H](CC(C)C)NC(=O)[C@H](CO)NC(=O)[C@H](CCCNC(=N)N)NC(=O)[C@H](CO)NC1=O
B9: Example 281: ((N-Me)G)-IC+SRSLPPIC+IPD-OH (peptide)
peptide: [Sar]ICSRSLPPICIPD-OH
modifications: disulfide 3-11; N-terminus assumed
SMILES: CC[C@H](C)[C@H](NC(=O)CNC)C(=O)N[C@H]1CSSC[C@@H](C(=O)N[C@H](C(=O)N2CCC[C@H]2C(=O)N[C@@H](CC(=O)O)C(=O)O)[C@@H](C)CC)NC(=O)[C@H]([C@@H](C)CC)NC(=O)[C@@H]2CCCN2C(=O)[C@@H]2CCCN2C(=O)[C@H](CC(C)C)NC(=O)[C@H](CO)NC(=O)[C@H](CCCNC(=N)N)NC(=O)[C@H](CO)NC1=O
B10: Example 284: (Cyclobutylacetic)-IC+SRS-((tBu)A)-PPI-(Pen)+IP-NH2 (peptide)
peptide: Cyclobutylacetic-ICSRS[tBuAla]PPI[Pen]IP-NH2
modifications: disulfide 2-10
SMILES: CC[C@H](C)[C@H](NC(=O)CC1CCC1)C(=O)N[C@H]1CSSC(C)(C)[C@@H](C(=O)N[C@H](C(=O)N2CCC[C@H]2C(N)=O)[C@@H](C)CC)NC(=O)[C@H]([C@@H](C)CC)NC(=O)[C@@H]2CCCN2C(=O)[C@@H]2CCCN2C(=O)[C@H](CC(C)(C)C)NC(=O)[C@H](CO)NC(=O)[C@H](CCCNC(=N)N)NC(=O)[C@H](CO)NC1=O
B11: Example 305: (Tetrahydropyranyl-4-acetic acid)-IC+SRS-((tBu)A)-PPI-((N-Me)C)+I-NH2 (peptide)
peptide: X5-ICSRS[tBuAla]PPI[NMeC]I-NH2
modifications: disulfide 2-10
SMILES: CC[C@H](C)[C@H](NC(=O)[C@@H]1CSSC[C@H](NC(=O)[C@@H](NC(=O)CC2CCOCC2)[C@@H](C)CC)C(=O)N[C@@H](CO)C(=O)N[C@@H](CCCNC(=N)N)C(=O)N[C@@H](CO)C(=O)N[C@@H](CC(C)(C)C)C(=O)N2CCC[C@H]2C(=O)N2CCC[C@H]2C(=O)N[C@@H]([C@@H](C)CC)C(=O)N1C)C(N)=O
B12: Example 323: GIC+SRSLP-(Oic)-IC+IPD-OH (peptide)
peptide: GICSRSLP[Oic]ICIPD-OH
modifications: disulfide 3-11; N-terminus assumed
SMILES: CC[C@H](C)[C@H](NC(=O)CN)C(=O)N[C@H]1CSSC[C@@H](C(=O)N[C@H](C(=O)N2CCC[C@H]2C(=O)N[C@@H](CC(=O)O)C(=O)O)[C@@H](C)CC)NC(=O)[C@H]([C@@H](C)CC)NC(=O)[C@@H]2C[C@@H]3CCCC[C@@H]3N2C(=O)[C@@H]2CCCN2C(=O)[C@H](CC(C)C)NC(=O)[C@H](CO)NC(=O)[C@H](CCCNC(=N)N)NC(=O)[C@H](CO)NC1=O
B13: Example 347: IC+SRSLP-(Oic)-I-(Pen)+IPD-OH (peptide)
peptide: ICSRSLP[Oic]I[Pen]IPD-OH
modifications: disulfide 2-10; N-terminus assumed
SMILES: CC[C@H](C)[C@H](N)C(=O)N[C@H]1CSSC(C)(C)[C@@H](C(=O)N[C@H](C(=O)N2CCC[C@H]2C(=O)N[C@@H](CC(=O)O)C(=O)O)[C@@H](C)CC)NC(=O)[C@H]([C@@H](C)CC)NC(=O)[C@@H]2C[C@@H]3CCCC[C@@H]3N2C(=O)[C@@H]2CCCN2C(=O)[C@H](CC(C)C)NC(=O)[C@H](CO)NC(=O)[C@H](CCCNC(=N)N)NC(=O)[C@H](CO)NC1=O
B14: Example 360: (4-(3,5-Dimethyl-1,2-oxazol-4-yl)-L-phenylalanine)-IC+SRSLP-(Oic)-I-(Pen)+IP-NH2 (peptide)
peptide: [X7]ICSRSLP[Oic]I[Pen]IP-NH2
modifications: disulfide 3-11; N-terminus assumed
SMILES: CC[C@H](C)[C@H](NC(=O)[C@@H](N)Cc1ccc(-c2c(C)noc2C)cc1)C(=O)N[C@H]1CSSC(C)(C)[C@@H](C(=O)N[C@H](C(=O)N2CCC[C@H]2C(N)=O)[C@@H](C)CC)NC(=O)[C@H]([C@@H](C)CC)NC(=O)[C@@H]2C[C@@H]3CCCC[C@@H]3N2C(=O)[C@@H]2CCCN2C(=O)[C@H](CC(C)C)NC(=O)[C@H](CO)NC(=O)[C@H](CCCNC(=N)N)NC(=O)[C@H](CO)NC1=O

biological target: T1, recombinant rat MASP1 active protease …; assay: cell-based or functional assay

In order of rising “rat MASP1 IC50” value:
1. B1  24.6 nM
2. {2‑(3-Pyridyl)acetic acid}-ICSRS[tBuAla]PPI[Pen]IP-NH2 (disulfide 2-10) [Example 226: (2-(3-Pyridyl)acetic acid)-IC+SRS-((tBu)A)-PPI-(Pen)+IP-NH2]  29 nM
3. B12  51.8 nM
4. B10  60 nM
5. B2  60.4 nM
6. B3  67.3 nM
7. B11  76 nM
8. B8  88.7 nM
9. B7  120 nM
10. B14  120 nM
11. B6  130 nM
12. B9  270 nM
13. B4  380 nM
14. B5  1000 nM
15. B13  1000 nM

biological target: recombinant rat MASP2 active protease (amino acids 296-685, C-terminal His Tag) (rat, UniProt Q9JJS8 296-685); assay: cell-based or functional assay
Sequence (Q9JJS8 other isoform, or with tags, fused parts or gaps limits assumed): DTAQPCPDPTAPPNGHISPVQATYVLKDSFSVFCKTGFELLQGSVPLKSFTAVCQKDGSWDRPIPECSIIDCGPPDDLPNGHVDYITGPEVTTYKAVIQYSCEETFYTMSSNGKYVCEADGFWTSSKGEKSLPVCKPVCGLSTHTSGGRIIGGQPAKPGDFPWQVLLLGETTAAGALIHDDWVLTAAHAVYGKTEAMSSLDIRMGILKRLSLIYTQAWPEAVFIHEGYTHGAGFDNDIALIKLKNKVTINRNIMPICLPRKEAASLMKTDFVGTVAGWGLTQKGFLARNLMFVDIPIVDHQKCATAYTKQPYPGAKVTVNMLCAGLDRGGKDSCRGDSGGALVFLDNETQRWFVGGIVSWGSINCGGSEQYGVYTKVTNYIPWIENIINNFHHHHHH

In order of falling “rat MASP2 IC50” value:
1. B5  1000 nM
2. B13  1000 nM
3. B9  308 nM
4. B3  125 nM
5. B14  73 nM
6. B12  60.1 nM
7. B8  55.2 nM
8. B2  42.4 nM
9. B6  42 nM
10. B1  34.5 nM
11. B4  29 nM
12. B10  9.7 nM
13. B7  9.6 nM
14. B11  5.3 nM
15. {2‑(3-Pyridyl)acetic acid}-ICSRS[tBuAla]PPI[Pen]IP-NH2 (disulfide 2-10) [Example 226: (2-(3-Pyridyl)acetic acid)-IC+SRS-((tBu)A)-PPI-(Pen)+IP-NH2]  2.9 nM
